Here are results for two substances from PMC7295242.

In data set [1] the test system is CCHFV nucleoprotein (NP) (Crimean-Congo hemorrhagic fever orthonairovirus). Description: competition fluorescence anisotropy.
Data set [2] shares this test system. Description: fluorescence anisotropy.

Take 27-mer RNA: the half-inhibitory concentration (IC50) in data set [1] stood at 197 nM. For the same substance, in data set [2], the Kd was found to be 190 nM.
The corresponding values for 48-mer RNA are 167 nM and 230 nM.
